Measured values published in the supplement of paper PMC10567573.

B1: SCARA5 (parent)
chain: VTEDLRLKDWEHSIALRNISLAKG

Variants of: B1
Experiment: protein stability index of a GFP-peptide fusion (GPS, HEK-293T) (PSI 1-6); higher = more stable
Details: c terminus: a fixed tail appended
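Further: lentivirally expressed fusions sorted by FACS into six bins by GFP to DsRed ratio, PSI derived from sequencing read proportions per bin multiplied by bin number.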

Protein stability index, by site and new letter:
L16: H 3.45; T 3.81; Y 3.14; R 3.4
D9: Y 2.69; W 2.22; T 3.18; V 3.01
S13: G 3.01; W 2.57; Q 3.68; I 2.85; C 3.08; E 3.58; H 3.1; Y 2.88; P 3.25; L 2.93; D 3.65; K 3.23; F 2.64; M 2.81; R 3.4; A 3.37; V 3.37; T 3.41; N 2.93
W10: Q 4.29; P 4.41; Y 3.62; N 4.26; M 3.67; F 3.12; C 4.11; E 4.62; D 4.67; T 4.26; S 4.39; R 4.45; K 4.22; A 4.28; G 4.63; L 3.55; V 4.14; H 4.37; I 3.41
A15: E 3.14; I 2.59; Y 2.39; V 2.34; Q 3.59; L 2.63; N 3.42; G 3.58; H 3.37; R 2.74; K 2.98; P 3.54; C 3.13; S 3.66; F 2.86; M 3.27; T 3.64; W 2.46; D 4.2
I14: C 3.26; V 3.75; G 4.17; Y 3.37; Q 3.91; K 3.86; A 4.04; P 4.76; R 3.64; W 3.29; L 3.3; H 3.47; S 4.22; E 4.03; D 4.26; T 3.59; M 3.4; F 3.21; N 3.96
